Test results: US20240270821A1, “GIP/GLP1/GCG TRI-RECEPTOR AGONISTS AND USES THEREOF” (priority 2023, published 2024)

T1: human GIP receptor (human) (UniProt P48546)
T1 sequence (looked up): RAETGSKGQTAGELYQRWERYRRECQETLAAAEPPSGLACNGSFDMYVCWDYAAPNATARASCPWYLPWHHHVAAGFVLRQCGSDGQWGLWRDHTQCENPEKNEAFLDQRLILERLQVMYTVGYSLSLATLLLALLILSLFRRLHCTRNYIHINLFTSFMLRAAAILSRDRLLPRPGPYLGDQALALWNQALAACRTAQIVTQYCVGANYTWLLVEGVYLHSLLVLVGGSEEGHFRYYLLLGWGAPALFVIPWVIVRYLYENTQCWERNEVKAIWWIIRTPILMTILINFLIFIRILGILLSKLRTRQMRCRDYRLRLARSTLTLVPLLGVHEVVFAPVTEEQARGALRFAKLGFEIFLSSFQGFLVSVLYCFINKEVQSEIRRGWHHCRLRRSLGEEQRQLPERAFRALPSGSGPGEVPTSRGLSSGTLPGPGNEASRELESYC

B1: Example 1019 (peptide)
chain: YXQGTFTSDXSQXLDXKAQXAFIEYLIEAGPSSGEPPPSGS
modifications: not fully specified; non-natural residues, (γGlu)2-C18 diacid lysine acylation, C-terminal amide; synthetic construct; SITE 2: note = 2-Aminoisobutyric Acid; SITE 10: note = 3-(4-Pyridyl)-L-alanine; SITE 13: note = alpha-methyl-leucine; SITE 16: note = L-ornithine; SITE 17: note = Lysine is chemically modified through conjugation of the epsilon-amino group of the Lysine side chain with (gamma-Gl)
B2: Example 1016 (peptide)
chain: YXQGTFTSDXSQXLDXKAQXAFIEYLIEAGPSSGAPPPSGS
modifications: not fully specified; Aib, 4Pal, αMeL, Orn, Me4Pal, D-Ala; acylated Lys; C-terminal amide; synthetic construct; SITE 2: note = 2-Aminoisobutyric Acid; SITE 10: note = 3-(4-Pyridyl)-L-alanine; SITE 13: note = alpha-methyl-leucine; SITE 16: note = L-ornithine; SITE 17: note = Lysine is chemically modified through conjugation of the epsilon-amino group of the Lysine side chain with (2-[2-(2-
B3: Example 1013 (peptide)
chain: YXQGTFTSDXSXXLDXKAQXAFIEXLIEGGPSSGAPPPSGS
modifications: Aib, 4Pal, Orn, αMeL, Me4Pal, αMeY, (γGlu)2-C18 diacid, amide; synthetic construct; SITE 2: note = 2-Aminoisobutyric Acid; SITE 10: note = 3-(4-Pyridyl)-L-alanine; SITE 12: note = L-ornithine; SITE 13: note = alpha-methyl-leucine; SITE 16: note = L-ornithine; SITE 17: note = Lysine is chemically modified through conjugation of the epsilon-amino group of the Lys
B4: Example 1017 (peptide)
chain: YXQGTFTSDXSQXLDXKAQXAFIEYLIEAGPSSGAPPPSGS
modifications: not fully specified; Aib, 4Pal, αMeL, Orn, Me4Pal, D-Ala; acylated Lys; amide; synthetic construct; SITE 2: note = 2-Aminoisobutyric Acid; SITE 10: note = 3-(4-Pyridyl)-L-alanine; SITE 13: note = alpha-methyl-leucine; SITE 16: note = L-ornithine; SITE 17: note = Lysine is chemically modified through conjugation of the epsilon-amino group of the Lysine side chain with (gamma-Gl)
B5: Example 997 (peptide)
chain: YXQGTFTSDXSXXLDXKAQXXFIEXLLAGGPSSGAPPPSGSEE
modifications: non-natural residues; lipidated Lys (γGlu)2-C18 diacid; C-term amide; synthetic construct; SITE 2: note = 2-Aminoisobutyric Acid; SITE 10: note = 3-(4-Pyridyl)-L-alanine; SITE 12: note = L-ornithine; SITE 13: note = alpha-methyl-leucine; SITE 16: note = L-ornithine; SITE 17: note = Lysine is chemically modified through conjugation of the epsilon-amino group of the Lys
B6: Example 1004 (peptide)
chain: YXQGTFTSDXSXXLDXKAQXXFIEYLLAGGPSSGAPPPSGSEE
modifications: non-natural residues; C18 diacid-(γ-Glu)2 acyl on Lys; C-terminal amide; synthetic construct; SITE 2: note = 2-Aminoisobutyric Acid; SITE 10: note = 3-(4-Pyridyl)-L-alanine; SITE 12: note = L-ornithine; SITE 13: note = alpha-methyl-leucine; SITE 16: note = L-ornithine; SITE 17: note = Lysine is chemically modified through conjugation of the epsilon-amino group of the Lys
B7: Example 999 (peptide)
chain: YXQGTFTSDXSQXLDXKAQXEFIEXLLAGGPSSGAPPPSGSEE
modifications: Aib, 4Pal, αMeL, Orn, Me4Pal, αMeY; γGlu2-C18 diacid Lys; amide; synthetic construct; SITE 2: note = 2-Aminoisobutyric Acid; SITE 10: note = 3-(4-Pyridyl)-L-alanine; SITE 13: note = alpha-methyl-leucine; SITE 16: note = L-ornithine; SITE 17: note = Lysine is chemically modified through conjugation of the epsilon-amino group of the Lysine side chain with (gamma-Gl)
B8: Example 1002 (peptide)
chain: YXQGTFTSDXSXXLDXKAQXQFIEYLLAGGPSSGAPPPSGSEE
modifications: non-natural residues; (γGlu)2-C18 diacid on Lys; C-terminal amide; synthetic construct; SITE 2: note = 2-Aminoisobutyric Acid; SITE 10: note = 3-(4-Pyridyl)-L-alanine; SITE 12: note = L-ornithine; SITE 13: note = alpha-methyl-leucine; SITE 16: note = L-ornithine; SITE 17: note = Lysine is chemically modified through conjugation of the epsilon-amino group of the Lys
B9: Example 1003 (peptide)
chain: YXQGTFTSDXSXXLDXKAQXEFIEYLLAGGPSSGAPPPSGSEE
modifications: (γGlu)2-C18 diacid on Lys; non-natural residues; amide; synthetic construct; SITE 2: note = 2-Aminoisobutyric Acid; SITE 10: note = 3-(4-Pyridyl)-L-alanine; SITE 12: note = L-ornithine; SITE 13: note = alpha-methyl-leucine; SITE 16: note = L-ornithine; SITE 17: note = Lysine is chemically modified through conjugation of the epsilon-amino group of the Lys
B10: Example 1005 (peptide)
chain: YXQGTFTSDXSQXLDXKAQXQFIEYLIAGGPSSGAPPPSGSEE
modifications: not fully specified; synthetic construct; SITE 2: note = 2-Aminoisobutyric Acid; SITE 10: note = 3-(4-Pyridyl)-L-alanine; SITE 13: note = alpha-methyl-leucine; SITE 16: note = L-ornithine; SITE 17: note = Lysine is chemically modified through conjugation of the epsilon-amino group of the Lysine side chain with (gamma-Gl)
B11: Example 1006 (peptide)
chain: YXQGTFTSDXSQXLDXKAQXQFIEYLLAGGPSSGAPPPSGSEE
modifications: synthetic construct; SITE 2: note = 2-Aminoisobutyric Acid; SITE 10: note = 3-(4-Pyridyl)-L-alanine; SITE 13: note = alpha-methyl-leucine; SITE 16: note = L-ornithine; SITE 17: note = Lysine is chemically modified through conjugation of the epsilon-amino group of the Lysine side chain with (gamma-Gl)
B12: Example 1000 (peptide)
chain: YXQGTFTSDXSXXLDXKAQXQFIEYLIAGGPSSGAPPPSGSEE
modifications: Lys acylated with (γGlu)2-C18 diacid; non-natural residues; C-amide; synthetic construct; SITE 2: note = 2-Aminoisobutyric Acid; SITE 10: note = 3-(4-Pyridyl)-L-alanine; SITE 12: note = L-ornithine; SITE 13: note = alpha-methyl-leucine; SITE 16: note = L-ornithine; SITE 17: note = Lysine is chemically modified through conjugation of the epsilon-amino group of the Lys
B13: Example 998 (peptide)
chain: YXQGTFTSDXSQXLDXKAQXQFIEXLLAGGPSSGAPPPSGSEE
modifications: non-natural residues, acylated Lys, C-terminal amide; synthetic construct; SITE 2: note = 2-Aminoisobutyric Acid; SITE 10: note = 3-(4-Pyridyl)-L-alanine; SITE 13: note = alpha-methyl-leucine; SITE 16: note = L-ornithine; SITE 17: note = Lysine is chemically modified through conjugation of the epsilon-amino group of the Lysine side chain with (gamma-Gl)

Key:
Assay in all cases: cell-based or functional assay
hGLP-1R = hGLP-1R (Homo sapiens, UniProt P43220)
[1] = target: T1, human GIP receptor (human)
[2] = target: human glucagon receptor (human) (UniProt P47871)
Sequence of human glucagon receptor (human) (P47871 26-477): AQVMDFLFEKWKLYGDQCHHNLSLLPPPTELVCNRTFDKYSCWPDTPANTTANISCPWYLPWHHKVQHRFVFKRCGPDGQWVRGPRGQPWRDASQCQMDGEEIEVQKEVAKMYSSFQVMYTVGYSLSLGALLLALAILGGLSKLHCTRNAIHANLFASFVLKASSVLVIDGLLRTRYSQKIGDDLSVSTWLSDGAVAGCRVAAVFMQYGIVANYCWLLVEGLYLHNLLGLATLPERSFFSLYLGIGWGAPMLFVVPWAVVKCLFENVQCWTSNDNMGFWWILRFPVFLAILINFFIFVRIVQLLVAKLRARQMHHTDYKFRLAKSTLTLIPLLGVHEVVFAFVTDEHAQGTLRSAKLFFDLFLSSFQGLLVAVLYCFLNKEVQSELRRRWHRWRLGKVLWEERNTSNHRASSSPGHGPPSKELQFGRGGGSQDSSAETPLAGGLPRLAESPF

Sequence of hGLP-1R (P43220 24-463): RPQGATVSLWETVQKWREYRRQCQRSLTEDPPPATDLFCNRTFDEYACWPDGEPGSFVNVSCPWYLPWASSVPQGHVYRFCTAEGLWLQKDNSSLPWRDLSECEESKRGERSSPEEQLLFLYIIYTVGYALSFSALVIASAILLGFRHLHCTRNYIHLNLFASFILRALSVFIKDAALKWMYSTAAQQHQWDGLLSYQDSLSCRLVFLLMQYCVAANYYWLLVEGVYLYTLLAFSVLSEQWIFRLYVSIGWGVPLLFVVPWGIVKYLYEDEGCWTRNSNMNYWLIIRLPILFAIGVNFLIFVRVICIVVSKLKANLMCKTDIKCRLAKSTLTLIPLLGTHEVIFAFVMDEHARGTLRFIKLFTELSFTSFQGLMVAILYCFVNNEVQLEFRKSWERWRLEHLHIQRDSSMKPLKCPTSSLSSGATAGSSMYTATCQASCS

Row | Binder | Relative cAMP EC50 (hGLP-1R) [µM] | cAMP Rel EC50, nM (1% HSA) (hGLP-1R) [nM] | Relative cAMP EC50 [1] [µM] | cAMP Rel EC50, nM (1% HSA) [1] [nM] | Relative cAMP EC50 [2] [µM] | cAMP Rel EC50, nM (1% HSA) [2] [nM]
1 | B1 | 0.00133 | 161 | 0.000169 | 21.3 | 0.00436 | 579
2 | B2 | – | 156 | – | 30.6 | – | 626
3 | B3 | – | 137 | – | 22.6 | – | 285
4 | B4 | – | 118 | – | 28.3 | – | 649
5 | B5 | – | 1880 | – | 27.8 | – | 527
6 | B6 | – | 973 | – | 35.4 | – | 237
7 | B7 | – | 3020 | – | 10.4 | – | 2130
8 | B8 | – | 1290 | – | 11.6 | – | 197
9 | B9 | – | 1950 | – | 15.9 | – | 371
10 | B10 | 0.00148 | 171 | 0.000152 | 14.5 | 0.00946 | 1670
11 | B11 | 0.00512 | 574 | 0.000109 | 11.8 | 0.00428 | 315
12 | B12 | – | 279 | – | 15.5 | – | 501
13 | B13 | – | 1470 | – | 6.78 | – | 794
